According to publication PMC3610674:
Where two headings read alike, the source gives them in different places.

What was measured:
[1] = target: proNS5-HA (proteolytically-processed HA-tagged DENV2 NS5) (dengue virus serotype 2 (DENV2)); assay: co-IP
[2] = target: proNS5-HA (proteolytically-processed HA-tagged DENV2 NS5) (dengue virus serotype 2 (DENV2)); assay: co-IP; remark: listed apart in the source

UBR4 (human, endogenous) (from UniProt Q5T4S7 1-5183) (natural protein)
fold UBR4 precipitated against NS5-HA (densitometry) [1]: 2 fold | fold UBR4 precipitated against NS5-HA (densitometry) [2]: 7 fold
